# Measurements from article PMC3245711.
# Molecular target: human KCNJ12 channel (pND-CTFH construct, C-terminal FLAG and octa-histidine tags) (human) (UniProt Q14500)
# Test: SEC
# human KCNJ12 channel (pND-CTFH construct, C-terminal FLAG and octa-histidine tags), sequence (Q14500 whole entry): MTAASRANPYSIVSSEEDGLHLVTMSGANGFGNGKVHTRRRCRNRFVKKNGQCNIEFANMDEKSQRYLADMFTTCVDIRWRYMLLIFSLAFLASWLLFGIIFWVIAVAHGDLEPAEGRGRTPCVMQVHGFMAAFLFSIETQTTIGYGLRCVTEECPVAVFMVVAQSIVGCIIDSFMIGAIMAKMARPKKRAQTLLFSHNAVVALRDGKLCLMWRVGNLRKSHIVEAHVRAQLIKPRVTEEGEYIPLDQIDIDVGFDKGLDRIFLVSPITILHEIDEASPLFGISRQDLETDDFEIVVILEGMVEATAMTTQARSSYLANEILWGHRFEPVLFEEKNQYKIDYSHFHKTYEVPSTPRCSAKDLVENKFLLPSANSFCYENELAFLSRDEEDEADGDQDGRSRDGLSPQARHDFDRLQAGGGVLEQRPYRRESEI
substance,measurement,value
"human KCNJ12 channel (pND-CTFH construct, C-terminal FLAG and octa-histidine tags) (from UniProt Q14500 1-433) (natural protein)",stoichiometry N,4
